B1: library; numbered along this chain (parent)
chain: MRKPRAAVGSGHRKQAASQEGRQKHAKNNSQAKPSACDGLARQPEEVVLQASVSSYHLFRDVAEVTAFRGSLLSWYDQEKRDLPWRRRAEDEMDLDRRAYAVWVSEVMLQQTQVATVINYYTGWMQKWPTLQDLASASLEEVNQLWAGLGYYSRGRRLQEGARKVVEELGGHMPRTAETLQQLLPGVGRYTAGAIASIAFGQATGVVDGNVARVLCRVRAIGADPSSTLVSQQLWGLAQQLVDPARPGDFNQAAMELGATVCTPQRPLCSQCPVESLCRARQRVEQEQLLASGSLSGSPDVEECAPNTGQCHLCLPPSEPWDQTLGVVNFPRKASRKPPREESSATCVLEQPGALGAQILLVQRPNSGLLAGLWEFPSVTWEPSEQLQRKALLQELQRWAGPLPATHLRHLGEVVHTFSHIKLTYQVYGLALEGQTPVTTVPPGARWLTQEEFHTAAVSTAMKKVFRVYQGQQPGTCMGSKRSQVSSPCSRKKPRMGQQVLDNFFRSHISTDAHSLNSAAQ

Variants of: B1
Experiment: 8OG:A repair function score (normalized; synonymous = 0, nonsense = -1) (normalized log-likelihood score); higher = more repair activity (WT-like)
Conditions: with 8OG:A DNA repair reporter (GFP) in HEK-293 MUTYH KO cells
How it was run: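 GFP+ (repair) and GFP− bins of viable mCherry+ cells were collected at 72 h from MUTYH knockout HEK-293 cells bearing lentiviral MUTYH cDNA NNN codon-scan libraries in 10 pg/ml doxycycline, co-transfected with an 8OG:A GFP repair reporter and mCherry. Tile amplicons were sequenced, and per-tile Rosace fitness scores were normalized to a repair function score anchored on synonymous and nonsense distributions. Synonymous medians were set to 0 and nonsense to -1, with variants under 300 counts per million at the start removed.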
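Also: cells sorted at 72 h after reporter transfection.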

Row | Variant | 8OG:A repair function score
1 | MRKPRAAVGSGHRKQAASQEGRQKHAKNNSQAKPSACDGLARQPEEVVLQASVSSYHLFRDVAEVTAFRGSLLSWYDQEKRDLPWRRRAEDEMDLDRRAYAVWVSEVMLQQTQVATVINYYTGWMQKWPTLQDLASASLEEVNQLWAGLGYYSRGRRLQEGARKVVEELGGHMPRTAETLQQLLPGVGRYTAGAIASIAFGQATGVVDGNVARVLCRVRAIGADPSSTLVSQQLWGLAQQLVDPARPGDFNQYAMELGATVCTPQRPLCSQCPVESLCRARQRVEQEQLLASGSLSGSPDVEECAPNTGQCHLCLPPSEPWDQTLGVVNFPRKASRKPPREESSATCVLEQPGALGAQILLVQRPNSGLLAGLWEFPSVTWEPSEQLQRKALLQELQRWAGPLPATHLRHLGEVVHTFSHIKLTYQVYGLALEGQTPVTTVPPGARWLTQEEFHTAAVSTAMKKVFRVYQGQQPGTCMGSKRSQVSSPCSRKKPRMGQQVLDNFFRSHISTDAHSLNSAAQ [A253Y] | -0.985
2 | MRKPRAAVGSGHRKQAASQEGRQKHAKNNSQAKPSACDGLARQPEEVVLQASVSSYHLFRDVAEVTAFRGSLLSWYDQEKRDLPWRRRAEDEMDLDRRAYAVWVSEVMLQQTQVATVINYYTGWMQKWPTLQDLASASLEEVNQLWAGLGYYSRGRRLQEGARKVVEELGGHMPRTAETLQQLLPGVGRYTAGAIASIAFGQATGVVDGNVARVLCRVRAIGADPSSTLVSQQLWGLAQQLVDPARPGDFNQAAMELGATVCTPQRPLCSQCPVESLCRARQRVEQEQLLASGSLSGSPDVEECAPNTGQCHLCLPPSEPWDQTLGVVNFPRKASRKPPREESSATCVLEQPGALGAQILLVQRPNSGLLAGLWEFPSVTWEFSEQLQRKALLQELQRWAGPLPATHLRHLGEVVHTFSHIKLTYQVYGLALEGQTPVTTVPPGARWLTQEEFHTAAVSTAMKKVFRVYQGQQPGTCMGSKRSQVSSPCSRKKPRMGQQVLDNFFRSHISTDAHSLNSAAQ [P383F] | -0.202
3 | MRKPRAAVGSGHRKQAASQEGRQKHAKNNSQAKPSACDGLARQPEEVVLQASVSSYHLFRDVAEVTAFRGSLLSWYDQEKRDLPWRRRAEDEMDLDRRAYAVWVSEVMLQQTQVATVINYYTGWMQKWPTLQDLASASLEEVNQLWAGLGYYSRGRRLQEGARKVVEELGGHMPRTAETLQQLLPGVGRYTAGAIASIAFGQATGVVDGNVARVLCRVRAIGADPSSTLVSQQLWGLAQQLVDPARPGDFNQAAMELGATVCTPQRPLCSQCPVESLCRARQRVEQEQLLASGSLSGSPDVEECAPNTGQCHLCLPPSEPWDQTLGVVNFPRKASRKPPREESSATCVLEQPGALGAQILLVQRPNSGLLAGLWEFPSVTWEPSEQLQRKALLQELQRWAGPLPATHLRHLGEVVHTFSHIKLTYQVYGLALEGQTPVTTVPPGARWLTFEEFHTAAVSTAMKKVFRVYQGQQPGTCMGSKRSQVSSPCSRKKPRMGQQVLDNFFRSHISTDAHSLNSAAQ [Q450F] | 0.013
4 | MRKPRAAVGSGHRKQAASQEGRQKHAKNNSQAKPSACDGLARQPEEVVLQASVSSYHLFRDVAEVTAFRGSLLSWYDQEKRDLPWRRRAEDEMDLDRRAYAVWVSEVMLQQTQVATVINYYTGWMQKWPTLQDLASASLEEVNQLWAGLGYYSRGRRLQEGARKVVEELGGHMPRTAETLQQLLPGVGRYTAGAIASIAFGQATGVVDGNVARVLCRVRAIGADPSSTLVSQQLWGLAQQLVDPARPGDFNQAAMELGATVCTPQRPLCSQCPVESLCRARQRVEQEQLLASGSLSGSPDVEECAPNTGQCHLCLPPSEPWDQTLGVVNFPRKASRKPPREESSATCVLEQPGALGAQILLVQRPNSGLLAGLWEFPSVTWEPSEQLQRKALLQELQRWAGPLPATHLRHLGEVVHTFSHIKLTYQVYGLALEGQTPVTTVPPGARWLTQEEFHTAAVSTAMKKVFRVYQGQQPGTCMGSKRSQVSSPCSRKKPRMGQQVLDNFFRSHISTDAHSLNTAAQ [S518T] | 0.014
5 | MRKPRAAVGSGHRKQAASQEGRQKHAKNNSQAKPSACDGLARQPEEVVFQASVSSYHLFRDVAEVTAFRGSLLSWYDQEKRDLPWRRRAEDEMDLDRRAYAVWVSEVMLQQTQVATVINYYTGWMQKWPTLQDLASASLEEVNQLWAGLGYYSRGRRLQEGARKVVEELGGHMPRTAETLQQLLPGVGRYTAGAIASIAFGQATGVVDGNVARVLCRVRAIGADPSSTLVSQQLWGLAQQLVDPARPGDFNQAAMELGATVCTPQRPLCSQCPVESLCRARQRVEQEQLLASGSLSGSPDVEECAPNTGQCHLCLPPSEPWDQTLGVVNFPRKASRKPPREESSATCVLEQPGALGAQILLVQRPNSGLLAGLWEFPSVTWEPSEQLQRKALLQELQRWAGPLPATHLRHLGEVVHTFSHIKLTYQVYGLALEGQTPVTTVPPGARWLTQEEFHTAAVSTAMKKVFRVYQGQQPGTCMGSKRSQVSSPCSRKKPRMGQQVLDNFFRSHISTDAHSLNSAAQ [L49F] | -0.0825
6 | MRKPRAAVGSGHRKQAASQEGRQKHAKNNSQAKPSACDGLARQPEEVVLQASVSSYHLFRDVAEVTAFRGSLLSWYDQEKRDLPWRRRAEDEMDLDRRAYAVWVSEVMLQQTQVATVINYYTGWMQKWPTLQDLASASLEEVNQLWAGLGYYSRGRRLQEGARKVVEELGGIMPRTAETLQQLLPGVGRYTAGAIASIAFGQATGVVDGNVARVLCRVRAIGADPSSTLVSQQLWGLAQQLVDPARPGDFNQAAMELGATVCTPQRPLCSQCPVESLCRARQRVEQEQLLASGSLSGSPDVEECAPNTGQCHLCLPPSEPWDQTLGVVNFPRKASRKPPREESSATCVLEQPGALGAQILLVQRPNSGLLAGLWEFPSVTWEPSEQLQRKALLQELQRWAGPLPATHLRHLGEVVHTFSHIKLTYQVYGLALEGQTPVTTVPPGARWLTQEEFHTAAVSTAMKKVFRVYQGQQPGTCMGSKRSQVSSPCSRKKPRMGQQVLDNFFRSHISTDAHSLNSAAQ [H172I] | -0.0329

From the supplement of paper PMC11908140
